Test results taken from US11123413B2, “Carbapenemases for use with antibiotics for the protection of the intestinal microbiome” (priority 2015, dated 2021).
Several values for one entry are separate records, joined by “and”; a condition that tells them apart may be missing. Identical values can stand only once.

What was measured:
[1] = P2A concentration estimate and specific activity in cell lysates (CENTA assay, P2A protein standard); format: biochemical; details: BLR (DE3) P2A Clone 1 lysate, replicates 1 and 2
Method: To achieve an estimate of the amount of P2A protein in each of the lysates, dilutions of the lysates (5 ul, 2.5 ul, 1.3 ul, and 0.63 ul) were evaluated on SDS/PAGE compared to dilutions of a purified P2A standard protein (2.0 ug, 1.0 ug, 0.5 ug, 0.25 ug, 0.13 ug). Based on the P2A protein band intensities, an estimate of the amount of P2A protein in each of the lysates was obtained. The biological activity of the P2A protein in the cell lysates under the different lysing conditions was evaluated using the CENTA chromogenic assay compared to the biological activity of the P2A protein standard. The biological activity was normalized based on the P2A protein concentration estimate and an estimated P2A specific activity was obtained. […] The P2A expression cassette without the leader will be used for future studies.
Based on the P2A protein band intensities, an estimate of the amount of P2A protein in each of the lysates was obtained. The biological activity of the P2A protein in these cell lysates was evaluated using the CENTA chromogenic assay compared to the biological activity of the P2A protein standard. The biological activity was normalized based on the P2A protein concentration estimate and an estimated P2A specific activity was obtained.

[2] = P2A stability in human chyme (CENTA); format: in vitro ADME
Method: The stability of purified P2A when incubated in human chyme at 37° C. was evaluated by assessing aliquots withdrawn from incubated samples at 0, 0.5, 1, 2, 3, 4, 5, and 6 hours for beta-lactamase activity using a CENTA beta-lactamase substrate. Five different chyme specimens were used for evaluation of stability. The mixed chyme sample contained equal volumes of each of the five chime specimens mixed together. Chyme samples were characterized for pH, liquid content, and protease activity (Table 20).

[3] = Proteolytic cleavage of NDM in 2% human chyme or porcine pancreatic elastase, N-terminal sequencing of fragments; format: in vitro ADME; details: 500 ug/mL in 2% mixed human chyme
Method: The loss of NDM activity upon incubation with human chyme was due to the proteolytic cleavage of NDM by endogenous proteases present in human chyme. To map the cleavage sites within the NDM protein, NDM ([…]) was incubated with 2% mixed human chyme (human chyme diluted with incubation buffer, 20 mM Hepes pH 6.2; 150 mM NaCl, 100 uM ZnSO4) for times ranging from 0 to 180 minutes. Twenty microliters of each sample (1 ug) was removed and transferred to 20 μL of 2× denaturing sample buffer for a final concentration of 25 ng/μL. The samples were boiled and 10 μL (250 ng of NDM) was subjected to analysis by SDS-PAGE. NDM was rapidly degraded, in 0-15 minutes, into 5 distinct cleavage fragments (FIG. 26). […]
To map the proteolytic cleavage sites of the NDM fragments, NDM was incubated with 2% mixed human chyme as described for 0 or 15 minutes. […] The NDM digestions were analyzed by SDS/PAGE, the gel equilibrated in 1× Tris-Glycine transfer buffer and the proteins were transferred to an equilibrated Sequi-Blot PVDF membrane by wet transfer in Tris-glycine buffer. […] The isolated fragments were analyzed by N-terminal sequencing of the first 5 amino acids using a Perkin Elmer Applied Biosystems Model 494 Procise protein/peptide sequencer with an on-line Perkin Elmer Applied Biosystems Model 140C PTH Amino Acid Analyzer. […]

[4] = KPC and NDM stability in mixed human chyme versus buffer (CENTA); format: in vitro ADME; details: 100 μM ZnSO4, 37° C., 80 ng/mL
Method: The stability of KPC and NDM in human chyme at 37° C. was evaluated by adding purified KPC or NDM (final concentration of 80 ng/mL) to mixed human chyme that contained equal volumes of each of five human chyme specimens collected from five different donors. ZnSO4 was added to the mixed chyme for a final concentration of 100 μM ZnSO4. Aliquots of the enzyme/chyme mixture were collected at 0, 30, 60, 120, 180, and 240 minutes of incubation and evaluated for beta-lactamase activity with a chromogenic assay using the CENTA reagent as the substrate. The biological activity of the enzymes in the mixed chyme was compared to the activity in buffer (HEPES buffer, 100 μM ZnSO4 pH 6.2).

[5] = NDM in dilutions of mixed human chyme with and without protease inhibitors (SDS-PAGE, CENTA); format: in vitro ADME; details: 30 minutes
Method: NDM activity was lost immediately upon incubation in the mixed human chyme (FIG. 24). To determine if the loss in activity was due to digestion by proteases present in the human chyme, purified NDM (100 ug/ml) was incubated for 30 minutes with dilutions of human mixed chyme ranging from 100% to 0% chyme in the absence or presence of a serine protease inhibitor cocktail (SigmaFAST protease inhibitors cocktail without EDTA (Sigma-Aldrich catalog number S8830). All incubations were performed in the presence of 100 μM ZnSO4 (final concentration). Samples removed at 30 minutes were transferred to lamelli sample buffer containing beta mercaptoethanol for analysis of protein degradation by gel electrophoreses and staining with coomassie blue. The remaining samples were snap frozen and used for evaluation of beta lactamase activity using a CENTA substrate (FIG. 25). […] In addition, most of the activity of NDM was retained at chyme dilutions of 3.13% or less (FIG. 25, panel A). In the presence of protease inhibitors, the majority of the NDM activity was retained at chyme dilutions of 50% or less.

Molecule | % Activity Compared to P2A standard ([1]; induction 18 o/n) | P2A-lactamase Activity ([1]; induction 18 o/n) | % Activity Compared to P2A standard ([1]; induction 25 on) | P2A-lactamase Activity ([1]; induction 25 on) | % Activity Compared to P2A standard ([1]; induction 37 3 hrs) | P2A-lactamase Activity ([1]; induction 37 3 hrs) | activity in chyme 3 sample ([2]; chyme 3 (pH 5.6)) | stability in pH-adjusted chyme 3 ([2]; chyme 3 adjusted to pH 7.0 using NaOH) | beta-lactamase activity in individual chyme samples ([2]; five individual human chyme samples, 100 uM ZnSO4) | beta-lactamase activity in mixed chyme without additional zinc ([2]; mixed human chyme, no added zinc, 37° C.) | time at which protein and fragments were undetectable [3] | time of degradation into 5 distinct cleavage fragments [3] | time by which activity was lost / not detectable [4] | chyme dilution at which the majority of the activity was retained ([5]; in the presence of protease inhibitors) | chyme dilution at which most of the activity was retained ([5]; without protease inhibitors) | chyme dilution at which intact protein could be detected ([5]; without protease inhibitors, SDS-PAGE)
P2A: broad spectrum carbapenemase, class B metallo-enzyme requiring zinc, SEQ ID NO: 37; P2A-21 = product of strain SYT-PP0602-21 (protein) ETGTISISQLNKNVWVHTELGYFNGEAVPSNGLVLNTSKGLVLVDSSWDNKLTKELIEMVEKKFQKRVTDVIITHAHADRIGGITALKERGIKAHSTALTAELAKNSGYEEPLGDLQTITSLKFGNTKVETFYPGKGHTEDNIVVWLPQYQILAGGCLVKSAEAKDLGNVADAYVNEWSTSIENVLKRYGNINSVVPGHGEVGDKGLLLHTLDLLK | 103% and 156% | 0.21 mg/mL and 0.16 mg/mL | 148% and 135% | 0.30 mg/mL and 0.27 mg/mL | 131% and 182% | 0.13 mg/mL and 0.18 mg/mL | rapidly declined | improved | relatively stable in four of five individual chyme samples | declined more rapidly | – | – | – | – | – | –
NDM: New Delhi metallo-β-lactamase NDM-1; NDM-68 = product of strain STY-NP1602-68 (STII Δ35, N-terminal GQQMETG) (protein) GQQMETGDQRFGDLVFRQLAPNVWQHTSYLDMPGFGAVASNGLIVRDGGRVLVVDTAWTDDQTAQILNWIKQEINLPVALAVVTHAHQDKMGGMDALHAAGIATYANALSNQLAPQEGMVAAQHSLTFAANGWVEPATAPNFGPLKVFYPGPGHTSDNITVGIDGTDIAFGGCLIKDSKAKSLGNLGDADTEHYAASARAFGAAFPKASMIVMSHSAPDSRAAITHTARMADKLR | – | – | – | – | – | – | – | – | – | – | 60 to 90 min | 0 to 15 min | ≤ 30 min | ≤ 50% | ≤ 3.13% | ≤ 6.25%
